Target: U2AF65 (UniProt P26368)
Test: NMR binding data
Settings: reference: non-phosphorylated SF1 construct; sites S80,S82

Substance: splicing factor 1 (SF1) (from UniProt Q15637) KIS-phosphorylated SF1 construct
- binding against the reference: same
